According to patent US20230220104A1 (BRIGHTPATH BIOTHERAPEUTICS, published 2023):
Read-outs that look alike come from different tables or passages of the source.

Legend:
[1] = target: T1, human CD73 on cells (H322, MDA-MB-231, HT-144, T cells, CD73-transfected HEK293T) (human, UniProt P21589 27-549); assay: flow cytometry on MDA-MB-231 cells (endogenous CD73), fluorescently labeled secondary antibody, PE channel
T1 construct: whole, on cells; One molecule for endogenous and transfected cell-surface human CD73; the cell line is named under assay or readout; also called CD73 antigen; human CD73 antigen
T1 sequence (looked up): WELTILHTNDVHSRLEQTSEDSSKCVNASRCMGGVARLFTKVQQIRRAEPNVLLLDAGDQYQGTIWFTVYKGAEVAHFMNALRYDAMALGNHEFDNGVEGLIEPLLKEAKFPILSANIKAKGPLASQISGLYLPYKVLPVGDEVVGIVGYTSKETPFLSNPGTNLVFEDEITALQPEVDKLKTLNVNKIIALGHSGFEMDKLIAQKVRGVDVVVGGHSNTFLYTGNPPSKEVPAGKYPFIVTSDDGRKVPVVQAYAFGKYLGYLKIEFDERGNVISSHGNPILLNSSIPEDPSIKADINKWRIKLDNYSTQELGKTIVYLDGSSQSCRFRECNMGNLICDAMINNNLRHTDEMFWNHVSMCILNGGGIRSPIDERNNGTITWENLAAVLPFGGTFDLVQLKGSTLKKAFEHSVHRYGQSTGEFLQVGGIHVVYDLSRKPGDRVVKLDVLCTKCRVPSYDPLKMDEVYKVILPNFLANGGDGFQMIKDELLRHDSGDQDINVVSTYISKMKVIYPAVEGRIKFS

[2] = target: T1, human CD73 on cells (H322, MDA-MB-231, …); assay: flow cytometry on H322 cells (endogenous CD73), fluorescently labeled secondary antibody, PE channel
[3] = target: T2, human CD73 antigen (Biacore analyte) (human, UniProt P21589 27-547, limits assumed); assay: SPR, Biacore 8K, antibody captured on CM5 chip, CD73 as analyte, multicycle kinetics, 1:1 model
T2 sequence (looked up): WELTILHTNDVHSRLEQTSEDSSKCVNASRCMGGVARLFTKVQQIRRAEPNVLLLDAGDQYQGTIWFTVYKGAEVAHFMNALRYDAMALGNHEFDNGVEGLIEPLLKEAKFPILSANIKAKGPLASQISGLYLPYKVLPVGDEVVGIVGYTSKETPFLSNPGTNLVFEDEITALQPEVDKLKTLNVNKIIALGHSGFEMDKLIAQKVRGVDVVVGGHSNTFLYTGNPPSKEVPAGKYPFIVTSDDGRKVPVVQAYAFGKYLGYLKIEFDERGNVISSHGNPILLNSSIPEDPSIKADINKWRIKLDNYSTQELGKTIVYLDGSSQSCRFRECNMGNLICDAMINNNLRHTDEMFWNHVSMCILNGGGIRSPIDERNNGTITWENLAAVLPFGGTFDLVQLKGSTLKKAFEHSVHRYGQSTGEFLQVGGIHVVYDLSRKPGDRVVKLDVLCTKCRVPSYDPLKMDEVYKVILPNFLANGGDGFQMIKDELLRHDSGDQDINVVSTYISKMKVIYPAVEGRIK

[4] = target: T3, cynomolgus CD73 (Biacore analyte) (cynomolgus, UniProt A0A2K5V5U7 27-547); assay: as above
T3 sequence: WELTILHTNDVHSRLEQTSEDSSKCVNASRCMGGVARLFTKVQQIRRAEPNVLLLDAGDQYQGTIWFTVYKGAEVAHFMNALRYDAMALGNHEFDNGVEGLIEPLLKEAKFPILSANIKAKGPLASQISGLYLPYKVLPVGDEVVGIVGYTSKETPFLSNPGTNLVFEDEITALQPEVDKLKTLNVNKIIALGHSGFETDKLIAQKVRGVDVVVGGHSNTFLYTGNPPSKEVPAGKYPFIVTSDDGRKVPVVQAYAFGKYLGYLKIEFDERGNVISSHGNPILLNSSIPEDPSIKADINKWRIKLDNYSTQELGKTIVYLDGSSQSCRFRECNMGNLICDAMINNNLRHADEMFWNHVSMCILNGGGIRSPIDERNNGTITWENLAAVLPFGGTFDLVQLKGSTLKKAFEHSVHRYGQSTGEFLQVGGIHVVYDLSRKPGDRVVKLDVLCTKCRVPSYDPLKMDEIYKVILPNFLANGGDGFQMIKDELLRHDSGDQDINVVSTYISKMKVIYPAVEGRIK

[5] = target: T1, human CD73 on cells (H322, MDA-MB-231, …); assay: cell-based or functional assay
[6] = target: T1, human CD73 on cells (H322, MDA-MB-231, …); assay: cell-based or functional assay; remark: listed apart in the source
[7] = target: T1, human CD73 on cells (H322, MDA-MB-231, …); assay: cell-based or functional assay; remark: listed apart in the source

B1: 009_m antibody (antibody, V domains shown)
VH: QVQLQQSGAELVRPGASVKLSCKASGYTFTSYWMNWVKQRPEPGLEWIGRIDPYDSEAHYNQKFKDKAILTVDKSSSTAYMQLSSLTSEDSAVYYCTRIRYGTFDYWGQGTTLTVSS
VL: DIVLTQSPSSMYASLGERVTITCKASQDINSYLSWFQQKPGKSPKTLIYRSNSLVDGVPSRFSGSGSGQDYSLTISSLEYEDMGSYYCLQYDEFPYTFGGGTRLEIKR
notes: Mouse antibody expressed recombinantly in CHO cells
binding result [1]: binds

B2: 005_m antibody (antibody, V domains shown)
VH: DVQLVESGPGLVAPSQSLSITCTVSGFSLTSYGVSWVRQPPGKGLEWLGVIWGDGSTNYHSALISRLSISKDNSKSQVFLKLNSLQTDDTATYYCAKTNIFYDYDWYLDVWGAGTTVTVSS
VL: DIVMTQAPLSLPVSLGDQASISCRSSQSLVHSNGNTYLHWYLQKPGQSPKLLIYKVSNRFSGVPDRFSGSGSGTDFTLKISRVEAEDLGVYFCSHSTHVPWTFGGGTKLELK
notes: as for B1
binding result [2]: binds

B3: 006_hKB antibody (antibody, V domains shown)
VH: QVQLLQSGAEVKKPGESVKISCKASGYTFTSYWMHWVKQRPGQGLEWIGEINPSNARTNYNENFKSRFTITVDKSTSTAYMQFSRLRSDDTAVYYCARRGTSGNYFDFWGQGTMLTVSS
VL: DIQMTQSPSSLSASLGQRVTITCKASQDINTYLSWFQQKPGKPPKTLIYRANRLVDGVPSRFSGSGSGEDYSLTISSLQSEDFGVYYCLQYDEFPYTFGPGTRLEIK
notes: Humanized antibody based on 006_m
Kd [3]: 426 pM
Kd [4]: 457 pM

B4: 002_6_h4 antibody (antibody, V domains shown)
VH: QVQMKQSAAEVRKPGASVKVSCKASGYTFTDSNMDWVRQAPGQGLEWMGDINPNNGGTIYNQKFKGRVTMTIDTSRSTAYMELRSLRSDDTAVYYCARTNWDYAMDYWGQGTTVTVSS
VL: DIQMTQSPSFLSASVGDRVTITCKASQDINSQLSWYQQKPGKAPKTLIYRANRLIDGVPSRFSGSGSGTDFTLTISSLQYEDMATYYCLQYDVFPRTFGGGTKLEIK
notes: Humanized antibody of 002_6_c; also called humanized anti-CD73 antibody 002_6_h4; lead antibody
IC50 of AMP degradation suppressive function, MDA-MB-231 cells [5]: 0.032 µg/mL
IC50 of AMP degradation suppressive function, H322 cells [6]: 0.069 µg/mL
Kd [3]: 204 pM
Kd [4]: 273 pM

B5: 002_m antibody (antibody, V domains shown)
VH: QVQMKQSGPELVKPGASVKIPCKASGYTFTDCNMDWVKQSHGESLEWIGDINPNNGGTIYNQKFKGKVTLTIDKSSSTAYMELRSLTSEDTAVYYCARTNWDYAMDYWGQGTSVTVSS
VL: DIQMTQSPSSMYASLGERVTITCKASQDINSNLSWFQQKPGKSPKTLIYRANRLIDGVPSRFSGSGSGQDYSLTISSLEYEDMGIYYCLQYDVFPRTFGGGTKLELK
IC50 of AMP degradation suppressive function, H322 cells [7]: 0.089 µg/mL
